# Experimental data: patent US20240342305A1 (published 2024)
# T1: recombinant human GPC1 (rhGPC1) (human, UniProt P35052 24-530, limits assumed)
# T1 sequence (looked up): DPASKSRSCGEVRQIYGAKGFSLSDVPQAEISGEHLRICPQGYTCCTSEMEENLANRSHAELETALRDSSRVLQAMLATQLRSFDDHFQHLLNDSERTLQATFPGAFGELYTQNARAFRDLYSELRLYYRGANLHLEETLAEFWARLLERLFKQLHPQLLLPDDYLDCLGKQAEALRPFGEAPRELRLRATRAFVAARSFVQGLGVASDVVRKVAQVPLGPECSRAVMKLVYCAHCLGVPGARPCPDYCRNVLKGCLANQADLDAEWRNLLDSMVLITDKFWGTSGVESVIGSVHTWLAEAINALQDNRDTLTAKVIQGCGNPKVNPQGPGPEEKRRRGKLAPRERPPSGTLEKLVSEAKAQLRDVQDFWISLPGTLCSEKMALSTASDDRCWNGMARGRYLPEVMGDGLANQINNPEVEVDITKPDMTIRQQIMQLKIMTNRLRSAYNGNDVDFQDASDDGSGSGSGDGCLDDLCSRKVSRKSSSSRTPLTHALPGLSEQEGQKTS
# T2: recombinant human GPC6 (rhGPC6) (human, UniProt Q9Y625 24-529, limits assumed)
# T2 sequence (looked up): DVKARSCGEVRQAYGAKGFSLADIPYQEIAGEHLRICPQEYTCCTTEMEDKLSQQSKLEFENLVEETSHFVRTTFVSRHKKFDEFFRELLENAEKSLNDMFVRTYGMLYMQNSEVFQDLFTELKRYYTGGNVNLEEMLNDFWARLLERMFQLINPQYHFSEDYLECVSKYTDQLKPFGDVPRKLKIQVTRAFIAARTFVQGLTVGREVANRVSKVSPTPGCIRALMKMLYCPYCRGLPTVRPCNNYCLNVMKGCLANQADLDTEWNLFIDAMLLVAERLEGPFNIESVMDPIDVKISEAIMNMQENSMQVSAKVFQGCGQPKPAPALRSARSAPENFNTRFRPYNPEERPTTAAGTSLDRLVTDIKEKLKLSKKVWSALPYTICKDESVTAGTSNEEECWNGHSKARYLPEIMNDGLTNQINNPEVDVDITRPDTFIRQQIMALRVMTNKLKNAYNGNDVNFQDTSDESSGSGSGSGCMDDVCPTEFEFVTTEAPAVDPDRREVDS
# T3: recombinant human GPC2 (rhGPC2) (human, UniProt Q8N158 24-554, limits assumed)
# T3 sequence (looked up): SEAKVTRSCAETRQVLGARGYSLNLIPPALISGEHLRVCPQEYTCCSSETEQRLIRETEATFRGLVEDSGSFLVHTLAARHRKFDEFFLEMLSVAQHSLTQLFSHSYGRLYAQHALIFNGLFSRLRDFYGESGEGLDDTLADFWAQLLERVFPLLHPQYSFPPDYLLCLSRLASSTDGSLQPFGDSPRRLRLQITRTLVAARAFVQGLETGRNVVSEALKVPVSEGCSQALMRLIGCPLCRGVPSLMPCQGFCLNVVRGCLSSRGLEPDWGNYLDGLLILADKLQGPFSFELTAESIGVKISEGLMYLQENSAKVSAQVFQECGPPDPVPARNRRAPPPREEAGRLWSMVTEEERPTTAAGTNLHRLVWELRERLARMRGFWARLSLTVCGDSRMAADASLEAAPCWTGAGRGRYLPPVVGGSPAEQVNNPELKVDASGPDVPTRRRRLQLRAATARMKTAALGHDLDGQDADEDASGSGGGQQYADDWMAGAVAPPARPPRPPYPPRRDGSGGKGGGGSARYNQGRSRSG
# T4: recombinant human GPC5 (rhGPC5) (human, UniProt P78333 25-551, limits assumed)
# T4 sequence (looked up): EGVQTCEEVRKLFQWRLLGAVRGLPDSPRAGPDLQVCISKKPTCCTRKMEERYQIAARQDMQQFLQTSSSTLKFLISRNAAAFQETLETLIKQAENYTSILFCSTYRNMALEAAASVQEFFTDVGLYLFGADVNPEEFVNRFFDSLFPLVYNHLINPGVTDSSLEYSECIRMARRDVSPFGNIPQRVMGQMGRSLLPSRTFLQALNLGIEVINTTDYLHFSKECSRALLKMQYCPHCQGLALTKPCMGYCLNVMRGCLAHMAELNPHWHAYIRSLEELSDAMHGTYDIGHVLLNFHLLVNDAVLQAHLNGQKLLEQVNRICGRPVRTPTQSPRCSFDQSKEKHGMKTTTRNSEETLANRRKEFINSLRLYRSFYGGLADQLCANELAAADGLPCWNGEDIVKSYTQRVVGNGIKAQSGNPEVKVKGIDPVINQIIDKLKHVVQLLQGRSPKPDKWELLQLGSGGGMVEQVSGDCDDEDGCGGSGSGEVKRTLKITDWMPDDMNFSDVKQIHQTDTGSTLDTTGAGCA
# How the values were obtained:
# [1] = molecular target: T5, human GPC3 recombinant protein (purchased from Shanghai Rui Jin Biotechnology Co., Ltd.) (human, UniProt P51654 25-559, limits assumed); experiment: SPR Biacore T200, antibody captured by anti-human IgG (Fc), GPC3 as analyte, single-cycle kinetics, 25 °C
# T5 construct: Bought recombinant protein; also called huGPC3; antigen GPC3
# Description: To quantitatively analyze the binding of P7D4 series antibodies to GPC3, the affinity and kinetic parameters of P7D4 series single-chain antibodies were measured by capture method using Biacore T200 system (from GE). An anti-human IgG (Fc) antibody (purchased from GE) was coupled to carboxymethyl dextran surface of sensor chip CM5 through primary amino with NHS/EDC coupling according to the manufacturer's instructions. Measurements were performed in 1×HBS-EP+working buffer at 25° C., 30 μl/min, and regeneration condition was 3 M MgCl₂, 10 μl/min for 30 seconds. In each round of the testing cycle, the antibody to be tested is firstly captured onto the chip. GPC3 of a certain concentration flowed over the chip surface. The interaction between human GPC3 and the captured antibody caused the change of the molecular concentration on the surface of the sensor chip which was measured according to changes in SPR Signal and expressed in resonance units (RU). Time vs resonance unit (RU) was plotted. The resulting sensorgram documents the entire reaction including the binding and dissociation processes (FIG. 4). In all single-cycle kinetics, GPC3 concentrations were 5 nM, 10 nM, 20 nM, 40 nM and 80 nM, respectively. The resulting curves were evaluated using Biacore T200 evaluation software and the affinity KD values were calculated.
# [2] = molecular target: T1, recombinant human GPC1 (rhGPC1); experiment: ELISA, antigen coated 100 ng/well, HRP anti-human Fc detection
# Description: (§1) In order to analyze the binding specificity of P7D4 series antibody to GPC3 protein, binding activity of P7D4 series single chain antibody to human GPC family members, including recombinant human GPC1 (rhGPC1), GPC2 (rhGPC2), GPC3 (rhGPC3), GPC5 (rhGPC5) and GPC6 (rhGPC6) (purchased from Andy Biosciences (Shanghai) Co., Ltd.) was detected by ELISA, respectively.
# (§2) For this purpose, the above 5 antigens were diluted with 0.1 M NaHCO₃ (pH 9.6) coating solution and each well was coated with 100 ng at 50 μl/well overnight at 4° C. and blocked with 2% (w/v) BSA in PBST for 2 hours at room temperature. The plate was then rinsed for three times with PBST and PBST was removed. Subsequently, 100 ng of each antibody protein in PBST was added to each well plate, and the assay for each sample was performed in duplecate wells. After incubated for 2 hours at 37° C., the plates were rinsed for three times with PBST followed by addition of 100 μl/well HRP-labeled rabbit anti-human Fc antibody (purchased from Shanghai Rui Jin Biotechnology Co., Ltd.) diluted at 1:20000 and incubated at 37° C. for 1 hour. For detection, wells were rinsed for three times with PBST followed by three times with PBS and finally with TMB for development for 10 min. The chromogenic reaction was stopped with 50 μl of 2 M H₂SO₄ per well, and extinction value was measured at 450 nm with enzyme-linked immunodetector (Bio-Rad).
# [3] = molecular target: T2, recombinant human GPC6 (rhGPC6); experiment: as above
# Description: as §1, §2
# [4] = molecular target: T3, recombinant human GPC2 (rhGPC2); experiment: as above
# Description: as §1, §2
# [5] = molecular target: T4, recombinant human GPC5 (rhGPC5); experiment: as above
# Description: as §1, §2
Binder,Kd [1] [nM],koff [1] [s⁻¹],kon [1] [M⁻¹ s⁻¹],binding result [2],binding result [3],binding result [4],binding result [5]
"P7D4 mutant single chain antibody am4 (scFv, not shown: a dimerising Fc or GST) scFv: QVQLQESGGGLVQPGRSLRLSCAASGFTFSTYAMTWVRQAPGKGLEWVSSISSSGESTYYADSVKGRFTISRDNSKNTLYLQMNSLRAEDTAVYYCAKDRRGSHADAFDVWGQGTLVTVSSGGGGSGGGGSGGGGSQSALTQPPSASGSPGQSVTISCTGTSSDVGGYNYVSWYQQYPGKAPKLLIYGNSNRPSGVPDRFSGSKSGTSASLAITGLQAEDGADYYCQSYDSSLRVVFGGGTKVTVLG",0.0756,4.08e-05,539000,no binding (tested: 100 ng of each antibody protein per well),no binding (tested: 100 ng of each antibody protein per well),no binding (tested: 100 ng of each antibody protein per well),no binding (tested: 100 ng of each antibody protein per well)
"P7D4 mutant single chain antibody am35 (scFv, not shown: a dimerising Fc or GST) scFv: QVQLQESGGGLVQPGRSLRLSCAASGFTFSSYAMHWVRQAPGKGLEWVSAISSSGGSTYYADSVKGRFTISRDNSKNTLYLQMNSLRAEDTAVYYCAKDRRGSHADAFDVWGQGTLVTVSSGGGGSGGGGSGGGGSQSALTQPPSASGSPGQSVTISCTGTSSDVGHKFPVSWYQQYPGKAPKLLIYKNLLRPSGVPDRFSGSKSGTSASLAITGLQAEDGADYYCQSYDSSLRVVFGGGTKVTVLG",0.0714,5.2e-05,738000,no binding (tested: 100 ng of each antibody protein per well),no binding (tested: 100 ng of each antibody protein per well),no binding (tested: 100 ng of each antibody protein per well),no binding (tested: 100 ng of each antibody protein per well)
"P7D4 mutant single chain antibody am14 (scFv, not shown: a dimerising Fc or GST) scFv: QVQLQESGGGLVQPGRSLRLSCAASGFTFSTYAMAWVRQAPGKGLEWVSEISSSGSRTYYADSVKGRFTISRDNSKNTLYLQMNSLRAEDTAVYYCAKDRRGSHADAFDVWGQGTLVTVSSGGGGSGGGGSGGGGSQSALTQPPSASGSPGQSVTISCTGTSSDVGGYNYVSWYQQYPGKAPKLLIYGNSNRPSGVPDRFSGSKSGTSASLAITGLQAEDGADYYCQSYDSSLRVVFGGGTKVTVLG",0.0646,4.43e-05,673000,no binding (tested: 100 ng of each antibody protein per well),no binding (tested: 100 ng of each antibody protein per well),no binding (tested: 100 ng of each antibody protein per well),no binding (tested: 100 ng of each antibody protein per well)
"P7D4 mutant single chain antibody T2-23 (scFv, not shown: a dimerising Fc or GST) scFv: QVQLQESGGGLVQPGRSLRLSCAASGFTFSSYAMHWVRQAPGKGLEWVSAISSSGRSTYYADSVEGRFTISRDNSKNTLYLQMNSLRAEDTAVYYCAKDRRGSHADALNVWGQGTLVTVSSGGGGSGGGGSGGGGSQSALTQPPSASGSPGQSVTISCTGTSSDVGGYNYVSWYQQYPGKAPKLLIYGNSNRPSGVPDRFSGSKSGTSASLAITGLQAEDGADYYCQSYDSSLRVVFGGGTKVTVLG",,,,no binding (tested: 100 ng of each antibody protein per well),no binding (tested: 100 ng of each antibody protein per well),no binding (tested: 100 ng of each antibody protein per well),no binding (tested: 100 ng of each antibody protein per well)
"P7D4 mutant single chain antibody am20 (scFv, not shown: a dimerising Fc or GST) scFv: QVQLQESGGGLVQPGRSLRLSCAASGFTFSTYAMNWVRQAPGKGLEWVSAISMSGESTYYADSVKGRFTISRDNSKNTLYLQMNSLRAEDTAVYYCAKDRRGSHADAFDVWGQGTLVTVSSGGGGSGGGGSGGGGSQSALTQPPSASGSPGQSVTISCTGTSSDVGGYNYVSWYQQYPGKAPKLLIYGNSNRPSGVPDRFSGSKSGTSASLAITGLQAEDGADYYCQSYDSSLRVVFGGGTKVTVLG",0.306,6.47e-05,212000,no binding (tested: 100 ng of each antibody protein per well),no binding (tested: 100 ng of each antibody protein per well),no binding (tested: 100 ng of each antibody protein per well),no binding (tested: 100 ng of each antibody protein per well)
